Drawing on paper PMC3175422, this text covers Kd, koff and kon for two substances.

For the assay, the target named is calreticulin (CRT) (UniProt P27797). Put plainly: SPR.
Sequence of UniProt P27797 (P27797 18-417): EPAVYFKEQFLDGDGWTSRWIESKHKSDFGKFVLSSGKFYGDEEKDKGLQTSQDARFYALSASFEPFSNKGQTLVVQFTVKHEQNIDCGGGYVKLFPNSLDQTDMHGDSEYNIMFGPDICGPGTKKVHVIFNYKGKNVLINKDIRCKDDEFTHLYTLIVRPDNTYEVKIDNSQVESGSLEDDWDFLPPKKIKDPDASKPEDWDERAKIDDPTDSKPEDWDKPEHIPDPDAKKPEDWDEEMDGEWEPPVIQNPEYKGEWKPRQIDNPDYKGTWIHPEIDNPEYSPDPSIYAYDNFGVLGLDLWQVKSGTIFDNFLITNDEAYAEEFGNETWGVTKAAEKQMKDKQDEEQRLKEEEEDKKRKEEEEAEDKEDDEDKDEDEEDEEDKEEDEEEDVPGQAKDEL

“Glc1Man9GlcNAc2-RNase (1) (from UniProt P61823 27-150) (enzyme)” had a Kd of 0.038 µM, a koff of 0.000482 s⁻¹ and a kon of 12800 M⁻¹ s⁻¹.
The corresponding values for “Gal1Glc1Man9GlcNAc2-RNase (2) (from UniProt P61823 27-150) (enzyme)” are 0.11 µM, 0.00199 s⁻¹ and 18100 M⁻¹ s⁻¹.
